Measured values from article PMC5499865 (Nucleic Acids Research, 2017).

Target: His-MPK6 (Arabidopsis thaliana, UniProt Q39026 1-395)
Test: pull-down

Sequence of His-MPK6 (Q39026 whole entry): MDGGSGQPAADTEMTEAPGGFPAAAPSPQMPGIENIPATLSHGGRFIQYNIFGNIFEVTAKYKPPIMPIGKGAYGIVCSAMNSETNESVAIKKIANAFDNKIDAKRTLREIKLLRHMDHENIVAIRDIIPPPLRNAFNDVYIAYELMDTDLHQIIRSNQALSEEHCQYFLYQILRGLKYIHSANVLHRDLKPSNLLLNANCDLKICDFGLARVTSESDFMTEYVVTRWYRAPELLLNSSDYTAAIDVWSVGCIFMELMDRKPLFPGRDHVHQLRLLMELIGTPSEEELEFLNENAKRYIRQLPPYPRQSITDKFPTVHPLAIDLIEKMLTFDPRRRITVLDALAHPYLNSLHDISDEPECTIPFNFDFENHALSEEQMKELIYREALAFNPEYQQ

binding result: binds
B1: GST-MYB15 (natural protein, Arabidopsis thaliana, UniProt Q9LTC4 1-285, looked up)
chain: MGRAPCCEKMGLKRGPWTPEEDQILVSFILNHGHSNWRALPKQAGLLRCGKSCRLRWMNYLKPDIKRGNFTKEEEDAIISLHQILGNRWSAIAAKLPGRTDNEIKNVWHTHLKKRLEDYQPAKPKTSNKKKGTKPKSESVITSSNSTRSESELADSSNPSGESLFSTSPSTSEVSSMTLISHDGYSNEINMDNKPGDISTIDQECVSFETFGADIDESFWKETLYSQDEHNYVSNDLEVAGLVEIQQEFQNLGSANNEMIFDSEMDFWFDVLARTGGEQDLLAGL
